{"source": "paper PMC5443842", "about": "“The Effect of Two Amino acid Residue Substitutions via RNA Editing on Dark-operative Protochlorophyllide Oxidoreductase in the Black Pine Chloroplasts” (Scientific Reports, 2017)", "biological_target": "T1, Strep-ChlN from Leptolyngbya boryana, expressed in E. coli (Leptolyngbya boryana, UniProt Q04607 1-467)", "T1 construct": "ChlN, subunit of DPOR (NB protein), Leptolyngbya boryana; Co-expressed with each ChlB variant; To my knowledge pASK-IBA5plus adds an N-terminal Strep-tag II; source: E. coli (chlN-chlB fragments in pASK-IBA5plus), in soluble fraction", "T1 sequence (Q04607 whole entry, the tested form may be a part)": "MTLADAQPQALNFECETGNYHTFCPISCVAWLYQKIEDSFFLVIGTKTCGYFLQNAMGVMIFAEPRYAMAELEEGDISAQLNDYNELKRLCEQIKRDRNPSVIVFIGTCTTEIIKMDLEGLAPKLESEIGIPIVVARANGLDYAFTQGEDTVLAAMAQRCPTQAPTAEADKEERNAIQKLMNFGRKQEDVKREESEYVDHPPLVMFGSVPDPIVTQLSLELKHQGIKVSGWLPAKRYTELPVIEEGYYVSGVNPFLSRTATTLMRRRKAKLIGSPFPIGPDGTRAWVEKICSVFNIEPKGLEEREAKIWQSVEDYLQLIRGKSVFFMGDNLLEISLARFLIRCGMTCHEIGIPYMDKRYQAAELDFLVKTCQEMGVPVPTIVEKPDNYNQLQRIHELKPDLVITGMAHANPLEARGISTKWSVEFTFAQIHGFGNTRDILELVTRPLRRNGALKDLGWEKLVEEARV", "experiment": "pull-down; ChlB variants co-expressed with Strep-ChlN in E. coli; soluble fractions on a Strep-Tactin column in an anaerobic chamber; affinity-purified proteins on SDS-PAGE stained with Coomassie Brilliant Blue, yields quantitated", "settings": "partners not purified", "data": [{"binder": "wild-type ChlB from Leptolyngbya boryana, expressed in E. coli (natural protein, UniProt P95463 1-508, looked up, ChlB, subunit of DPOR (NB protein), Leptolyngbya boryana; also called WT ChlB; WT control; source: E. coli (pHANB2), in soluble fraction) MKLAYWMYAGPAHIGTLRIASSFKNVHAIMHAPLGDDYFNVMRSMLERERDYTPVTTSVVDRHVLARGSQEKVVDNITRKDAEEHPDLIVLTPTCTSSILQEDLQNFVERAQLEAKGDVMLADVNHYRVNELQAADRTLQQIVQFYIAKARKQGNLVTEKTEKPSVNIFGMTTLGFHNNHDATELKKLMSDLGIEVNAIVPAGASVHELKSLPRAWFNLVPYRETGLLAAEFLQQEFNMPYVDITPIGIVETARCIRKIQQVINAQGANVDYEPFIDQQTRFVSQAAWFSRSIDCQNLTGKKAVVFGDNTHAAALTKILAREMGIHVLLAGTYCKYDEAWFREQVSEYCDDVLVSDDNGQIADAIARLEPAAIFGTQMERHVGKRLDIPCGVIAAPIHIQNFPVGYKPFVGYEGSNQIVDLIYNSFTLGMEDHLLEIFGGHDTKEVITKSVSADSDLNWSKDGLAELNRIPGFVRGKVKRNTEKFARDRNITQITAEVLYAAKEAVGA", "values": [{"measurement": "stoichiometry N", "result": "~1"}]}]}
